B1: C5A (XPA23) VL H49K (antibody, V domains shown)
VH: EVQLLESGGGLVQPGGSLRLSCAASGFTFSKYFMFWVRQAPGKGLEWVSVISPSGGMTRYADSVKGRFTISRDNSKNTLYLQMNSLRAEDTAVYYCARVGYGGNSDYWGQGTLVTVSS
VL: DIQMTQSPSSVSASVGDRLTIICRASQDINRWLAWYQQTPGNAPKLLIKSATSLQSGVPSRFSGSGSGTDFTLTINSLQPEDFATYYCQQADSFPLTFGGGTKVEIK
B2: C5A (XPA23) VL H49Y (antibody, V domains shown)
VH: B1 VH
VL: B1 VL with K49Y
B3: C5A (XPA23) VL T52Y (antibody, V domains shown)
VH: B1 VH
VL: B1 VL with K49H, T52Y
B4: C5A (XPA23) VL T52N (antibody, V domains shown)
VH: B1 VH
VL: B1 VL with K49H, T52N
B5: C5A (XPA23) VL S50N (antibody, V domains shown)
VH: B1 VH
VL: B1 VL with K49H, S50N
B6: C5A (XPA23) VL A51T (antibody, V domains shown)
VH: B1 VH
VL: B1 VL with K49H, A51T
B7: C5A (XPA23) VL S53E (antibody, V domains shown)
VH: B1 VH
VL: B1 VL with K49H, S53E
B8: C5A (XPA23) VL A91N (antibody, V domains shown)
VH: B1 VH
VL: B1 VL with K49H, A91N
B9: C5A (XPA23) VL T52E (antibody, V domains shown)
VH: B1 VH
VL: B1 VL with K49H, T52E
B10: C5A (XPA23) VL S53N (antibody, V domains shown)
VH: B1 VH
VL: B1 VL with K49H, S53N
B11: C5A (XPA23) VL T52D (antibody, V domains shown)
VH: B1 VH
VL: B1 VL with K49H, T52D
B12: C5A (XPA23) VL A91D (antibody, V domains shown)
VH: B1 VH
VL: B1 VL with K49H, A91D
B13: C5A (XPA23) VL S50T (antibody, V domains shown)
VH: B1 VH
VL: B1 VL with K49H, S50T
B14: C5A (XPA23) VL S53Y (antibody, V domains shown)
VH: B1 VH
VL: B1 VL with K49H, S53Y
B15: C5A (XPA23) VL H49N (antibody, V domains shown)
VH: B1 VH
VL: B1 VL with K49N
B16: C5A (XPA23) VL S50K (antibody, V domains shown)
VH: B1 VH
VL: B1 VL with K49H, S50K
B17: C5A (XPA23) VL H49R (antibody, V domains shown)
VH: B1 VH
VL: B1 VL with K49R
B18: C5A (XPA23) VL T52Q (antibody, V domains shown)
VH: B1 VH
VL: B1 VL with K49H, T52Q
B19: C5A (XPA23) VL H49S (antibody, V domains shown)
VH: B1 VH
VL: B1 VL with K49S
B20: C5A (XPA23) VL S50Y (antibody, V domains shown)
VH: B1 VH
VL: B1 VL with K49H, S50Y
B21: C5A (XPA23) VL T52S (antibody, V domains shown)
VH: B1 VH
VL: B1 VL with K49H, T52S
B22: C5A (XPA23) VL A51R (antibody, V domains shown)
VH: B1 VH
VL: B1 VL with K49H, A51R
B23: C5A (XPA23) VL S53T (antibody, V domains shown)
VH: B1 VH
VL: B1 VL with K49H, S53T
B24: C5A (XPA23) VL T52H (antibody, V domains shown)
VH: B1 VH
VL: B1 VL with K49H, T52H
B25: C5A (XPA23) VL A51H (antibody, V domains shown)
VH: B1 VH
VL: B1 VL with K49H, A51H
B26: C5A (XPA23) VL A51N (antibody, V domains shown)
VH: B1 VH
VL: B1 VL with K49H, A51N
B27: C5A (XPA23) VL S53K (antibody, V domains shown)
VH: B1 VH
VL: B1 VL with K49H, S53K
B28: C5A (XPA23) VL S53R (antibody, V domains shown)
VH: B1 VH
VL: B1 VL with K49H, S53R
B29: C5A (XPA23) VL T52R (antibody, V domains shown)
VH: B1 VH
VL: B1 VL with K49H, T52R
B30: C5A (XPA23) VL S50H (antibody, V domains shown)
VH: B1 VH
VL: B1 VL with K49H, S50H
B31: C5A (XPA23) VL A91H (antibody, V domains shown)
VH: B1 VH
VL: B1 VL with K49H, A91H
B32: C5A (XPA23) VL S50E (antibody, V domains shown)
VH: B1 VH
VL: B1 VL with K49H, S50E
B33: C5A (XPA23) VL S50Q (antibody, V domains shown)
VH: B1 VH
VL: B1 VL with K49H, S50Q
B34: C5A (XPA23) VL T52K (antibody, V domains shown)
VH: B1 VH
VL: B1 VL with K49H, T52K
B35: C5A (XPA23) VL A51E (antibody, V domains shown)
VH: B1 VH
VL: B1 VL with K49H, A51E
B36: C5A (XPA23) VL A51S (antibody, V domains shown)
VH: B1 VH
VL: B1 VL with K49H, A51S
B37: C5A (XPA23) VL S53Q (antibody, V domains shown)
VH: B1 VH
VL: B1 VL with K49H, S53Q
B38: C5A (XPA23) VL A91E (antibody, V domains shown)
VH: B1 VH
VL: B1 VL with K49H, A91E
B39: C5A (XPA23) VL A51Y (antibody, V domains shown)
VH: B1 VH
VL: B1 VL with K49H, A51Y
B40: C5A (XPA23) VL A51D (antibody, V domains shown)
VH: B1 VH
VL: B1 VL with K49H, A51D
B41: C5A (XPA23) VL A91S (antibody, V domains shown)
VH: B1 VH
VL: B1 VL with K49H, A91S
B42: C5A (XPA23) VL A91T (antibody, V domains shown)
VH: B1 VH
VL: B1 VL with K49H, A91T
B43: C5A (XPA23) VL A51Q (antibody, V domains shown)
VH: B1 VH
VL: B1 VL with K49H, A51Q

Residue numbers refer to the chain shown, from its start. Numbers in names are those of the source.

The target in this experiment is binding partner of C5A (XPA23). Put plainly: Biacore K-off.
For the molecule B1, the fold difference in affinity vs original came to 0.1 fold.

Consider B2, for which the fold difference in affinity vs original is 0.52 fold.

For B3, the fold difference in affinity vs original came out at 1.01 fold.

As for B4, the fold difference in affinity vs original stood at 0.83 fold.

With B5, the fold difference in affinity vs original turned out to be 0.25 fold.

For B6, the fold difference in affinity vs original amounted to 0.76 fold.

For the molecule B7, the fold difference in affinity vs original amounted to 1.13 fold.

On to B8, for which the fold difference in affinity vs original came out at 0.1 fold.

On to B9, for which the fold difference in affinity vs original came to 0.61 fold.

Turning to B10, the fold difference in affinity vs original came to 1.23 fold.

In the case of B11, the fold difference in affinity vs original came out at 0.72 fold.

Turning to B12, the fold difference in affinity vs original was found to be 1.08 fold.

Regarding B13, the fold difference in affinity vs original amounted to 0.87 fold.

As for B14, the fold difference in affinity vs original stood at 1.23 fold.

With B15, the fold difference in affinity vs original came to 0.31 fold.

On to B16, for which the fold difference in affinity vs original worked out at 0.1 fold.

Turning to B17, the fold difference in affinity vs original was found to be 0.21 fold.

For B18, the fold difference in affinity vs original worked out at 0.83 fold.

Regarding B19, the fold difference in affinity vs original was determined as 0.14 fold.

Take B20: the fold difference in affinity vs original was determined as 0.05 fold.

With B21, the fold difference in affinity vs original turned out to be 0.78 fold.

As for B22, the fold difference in affinity vs original was 0.18 fold.

In the case of B23, the fold difference in affinity vs original was found to be 0.95 fold.

B24: the fold difference in affinity vs original was 0.91 fold.

With B25, the fold difference in affinity vs original came out at 0.61 fold.

For B26, the fold difference in affinity vs original stood at 0.3 fold.

Take B27: the fold difference in affinity vs original came to 4.07 fold.

As to B28, the fold difference in affinity vs original worked out at 3.29 fold.

For the molecule B29, the fold difference in affinity vs original is 3.37 fold.

Take B30: the fold difference in affinity vs original was found to be 0.05 fold.

For the molecule B31, the fold difference in affinity vs original is 1.12 fold.

For B32, the fold difference in affinity vs original was 0.02 fold.

Consider B33, for which the fold difference in affinity vs original is 0.21 fold.

In the case of B34, the fold difference in affinity vs original amounted to 3.23 fold.

Turning to B35, the fold difference in affinity vs original stood at 0.29 fold.

With B36, the fold difference in affinity vs original was 0.95 fold.

On to B37, for which the fold difference in affinity vs original is 1.09 fold.

Regarding B38, the fold difference in affinity vs original was found to be 0.1 fold.

Regarding B39, the fold difference in affinity vs original stood at 0.45 fold.

Take B40: the fold difference in affinity vs original came to 0.13 fold.

In the case of B41, the fold difference in affinity vs original was 0.9 fold.

B42: the fold difference in affinity vs original amounted to 0.67 fold.

B43: the fold difference in affinity vs original stood at 0.24 fold.

These data come from patent publication US20110118447A1.
